The values below are quoted from earlier work in publication doi:10.1101/2020.11.23.394015.

The data set addresses Glu89 (UniProt position 105, IDALNENKVLV). As to conditions: folded; closed-to-open EF loop (Tanford) transition.

For the substance beta-lactoglobulin (BBL) (Bos taurus), the pKa is reported as ~ 7.3.
